According to patent publication US20080299072A1:

B1: PEG-2 kDa-RANTES, P13501 24-91 (ligand)
chain: {mPEG‑ButyrALD 2 kDa}-SPYSSDTTPCCFAYIARPLPRAHIKEYFYTSGKCSNPAVVFVTRKNRQVCANPEKKWVREYINSLEMS
B2: Mature wildtype (wt) human RANTES, P13501 24-91 (ligand)
chain: SPYSSDTTPCCFAYIARPLPRAHIKEYFYTSGKCSNPAVVFVTRKNRQVCANPEKKWVREYINSLEMS
B3: PEG-5 kDa-RANTES, P13501 24-91 (ligand)
chain: {mPEG‑ButyrALD 5 kDa}-SPYSSDTTPCCFAYIARPLPRAHIKEYFYTSGKCSNPAVVFVTRKNRQVCANPEKKWVREYINSLEMS

Assays:
CCR5, P51681 [1] = assay: competition SPA, displacement of 125I-MIP-1α from CCR5 CHO membranes; conditions: remark: other sources report otherwise
CCR5, P51681 [2] = assay: competition SPA, displacement of 125I-MIP-1α from CCR5 CHO membranes (FIG. 2); conditions: remark: other sources report otherwise

CCR5, P51681, sequence (P51681 whole entry): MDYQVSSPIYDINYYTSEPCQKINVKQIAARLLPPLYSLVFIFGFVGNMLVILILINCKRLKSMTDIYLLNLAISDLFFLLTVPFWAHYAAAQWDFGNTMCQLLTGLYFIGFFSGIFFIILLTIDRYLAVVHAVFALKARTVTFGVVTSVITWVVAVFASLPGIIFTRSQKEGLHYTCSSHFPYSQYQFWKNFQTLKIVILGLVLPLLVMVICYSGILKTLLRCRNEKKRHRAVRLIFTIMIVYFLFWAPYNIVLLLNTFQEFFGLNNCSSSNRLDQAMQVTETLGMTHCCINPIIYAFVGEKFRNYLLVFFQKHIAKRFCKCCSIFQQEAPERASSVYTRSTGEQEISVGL

Row | Binder | IC50 (CCR5, P51681 [1]) | IC50 (CCR5, P51681 [2])
1 | B1 | 10.6 nM | 3.1 nM
2 | B2 | 1.6 nM | 1.3 nM
3 | B3 | 2.8 nM | 2.2 nM
